From patent publication EP4424820A1

Target: NRPS-13 subunit B: SZ18 at the N-terminus of the C-terminal part of XtpS, split in the A-T linker of module two (Xenorhabdus nematophila ATCC 19061)
Assay: cell-based or functional assay

NRPS-13 subunit B: SZ18 at the N-terminus of the C-terminal part of XtpS, split in the A-T linker of module two (Xenorhabdus nematophila ATCC 19061), sequence (chain, as listed by the source): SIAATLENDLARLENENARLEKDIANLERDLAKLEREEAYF

- peptide yield of xenotetrapeptide 1 by the split synthetase NRPS-13 produced in E. coli DH10B::mtaA (HPLC-MS/MS): 155 mg/L
Substance: NRPS-13 subunit A: N-terminal part of XtpS, split in the A-T linker of module two, with SZ17 at its C-terminus (enzyme)
